This passage reports concentration for 50% rescue (IC50) from inhibition of INA6 cell proliferation induced by 10 nM Activin A, WST-1; competes with Activin A for the type II receptors results from paper PMC5425150.

The target of the experiment is type II receptors on the cell surface of INA6 cells (human (endogenous in INA6)).

BMP2-L51PL100KN102D (ligand) displayed a concentration for 50% rescue (IC50) from inhibition of INA6 cell proliferation induced by 10 nM Activin A, WST-1; competes with Activin A for the type II receptors of 62.5 nM.

B1: Recombinant human BMP2 (wildtype) (ligand)
chain: QAKHKQRKRLKSSCKRHPLYVDFSDVGWNDWIVAPPGYHAFYCHGECPFPLADHLNSTNHAIVQTLVNSVNSKIPKACCVPTELSAISMLYLDENEKVVLKNYQDMVVEGCGCR
Molecule B1 registered a concentration for 50% rescue (IC50) from inhibition of INA6 cell proliferation induced by 10 nM Activin A, WST-1; competes with Activin A for the type II receptors of 250 nM.
